Assay results as given in PMC6546359.

T1: CsrA-Strep (Bacillus subtilis, UniProt P33911 1-74)
T1 sequence: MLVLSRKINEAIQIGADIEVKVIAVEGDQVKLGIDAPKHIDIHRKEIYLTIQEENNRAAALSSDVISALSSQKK

B1: RoxS (structured_RNA)
RNA: GUGAAAUUGAUCACAAACAAACAUUACCCCUUUGUUUGACCGUGAAAAUUUCUCCCAUCCCCUUUGUUGUCGUUAAGACAUAUGAAACCGCGCUUAUCCCGGCGCGGUUUCUUU
B2: RnaC (structured_RNA)
RNA: UAAGGCCGGCGCGAUACUCCCUAUAACAUCCUUUUCAGUAGAUUUCAUUAUCGUGCCGGUUUUCUCAUAUGCAAAGCAAUCCCGCCAAUCAGAUUGGCGGGGAUUUUAUAUUU
B3: FsrA (structured_RNA)
RNA: AUAGAGAGAAGCUACUCUCUGUUCCCCAACCCCUCUAUCAGAUCAAGAUCCGGAAAAAACUUGGCGCUACCCCCGCCAAGUUUUU

Target: T1, CsrA-Strep
Assay: EMSA

Row | Binder | binding result
1 | B1 | no binding
2 | B2 | no binding
3 | B3 | no binding
